Each block holds one substance with its values, some of them ahead of it.
What was measured:
[1] = biological target: interleukin 1 receptor (on human peripheral blood leukocytes RPMI 1788) (human (cells are stated to be human)) (UniProt P14778); test: cell-based or functional assay
alpha-amylase = test: cell-based or functional assay

Chain of UniProt P14778 (P14778 18-569): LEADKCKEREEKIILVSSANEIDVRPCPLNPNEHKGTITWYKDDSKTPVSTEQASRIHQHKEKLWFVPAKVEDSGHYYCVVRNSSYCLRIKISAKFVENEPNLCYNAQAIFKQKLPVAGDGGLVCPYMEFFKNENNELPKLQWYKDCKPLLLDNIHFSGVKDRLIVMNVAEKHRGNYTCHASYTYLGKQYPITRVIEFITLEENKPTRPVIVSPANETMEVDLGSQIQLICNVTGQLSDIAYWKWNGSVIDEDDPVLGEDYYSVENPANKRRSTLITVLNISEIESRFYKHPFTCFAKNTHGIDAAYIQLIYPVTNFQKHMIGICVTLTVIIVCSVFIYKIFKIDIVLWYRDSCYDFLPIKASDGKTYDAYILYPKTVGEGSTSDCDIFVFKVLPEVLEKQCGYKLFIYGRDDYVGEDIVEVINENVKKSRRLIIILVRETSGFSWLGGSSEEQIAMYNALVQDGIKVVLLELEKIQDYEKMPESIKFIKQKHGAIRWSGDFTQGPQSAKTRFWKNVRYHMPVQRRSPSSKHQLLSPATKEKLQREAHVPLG

specific activity: EC50 value in µg/mL, inhibition of proliferation of RPMI 1788 cells (CellTiter Glo assay) [1]: 0.5 µg/mL
Substance: ELP/IL-1Ra fusion protein (ELP1 [V5A2G3-90] - … - interleukin 1 receptor antagonist) (from UniProt P18510 26-177)

potency relative to ELP/IL-1Ra in the cell proliferation assay [1]: 4 fold
specific activity: EC50 value in µg/mL, inhibition of proliferation of RPMI 1788 cells (CellTiter Glo assay) [1]: 2 µg/mL
Substance: IL-1Ra/ELP fusion protein (interleukin 1 receptor antagonist - … - ELP1 [V5A2G3-90]) (from UniProt P18510 26-177)

α-amylase inhibition activity (colorimetric α-amylase inhibition assay) (alpha-amylase): 2 fold
Substance: ternary thioredoxin-ELP-tendamistat fusion (thioredoxin/90-mer ELP/tendamistat) (from UniProt P01092 31-104)

EC50, inhibition of proliferation of RPMI 1788 cells (CellTiter Glo assay) [1]: 1.6 ng/mL
activity relative to IL-1Ra/ELP in the cell proliferation assay [1]: 300 fold
Substance: un-fused, commercially available interleukin 1 receptor antagonist (from UniProt P18510 26-177) (ligand)

From patent publication US20130143802A1
